Measurements published in US20190367619A1 (ARGENX, published 2019).

T1: human galectin-10-His (human)
T1 construct: The last M of the tag may be Met1 of galectin-10; also called humanGal10-His; hGal10
T1 chain: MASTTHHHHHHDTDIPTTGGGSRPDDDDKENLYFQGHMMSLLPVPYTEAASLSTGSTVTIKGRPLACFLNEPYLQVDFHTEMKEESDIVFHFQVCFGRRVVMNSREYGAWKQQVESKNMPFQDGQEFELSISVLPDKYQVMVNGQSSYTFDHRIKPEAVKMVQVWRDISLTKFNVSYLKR

T2: cynomolgus galectin-10-His, YRT isoform (cynomolgus)
T2 construct: also called cynoGal10-YRT; not shown: His tag
T2 chain: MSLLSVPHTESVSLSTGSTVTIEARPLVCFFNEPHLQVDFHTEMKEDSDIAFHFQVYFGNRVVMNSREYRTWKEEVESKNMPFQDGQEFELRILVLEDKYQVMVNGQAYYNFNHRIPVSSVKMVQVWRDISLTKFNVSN

T3: cynomolgus galectin-10-His, WGS isoform (cynomolgus)
T3 construct: also called cynoGal10-WGS; not shown: His tag
T3 chain: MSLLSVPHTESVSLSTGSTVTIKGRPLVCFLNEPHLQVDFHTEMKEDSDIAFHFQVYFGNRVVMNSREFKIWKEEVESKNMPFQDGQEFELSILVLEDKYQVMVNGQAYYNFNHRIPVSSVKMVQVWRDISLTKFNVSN


Legend:
human galectin-10-His [1] = target: T1, human galectin-10-His; experiment: SPR Biacore T3000, scFv-human Fc captured
Protocol: (§1) The binding properties of the scFv-human Fc panel to galectin-10 were analyzed on the Biacore T3000. For this purpose, a CM5 Chip was coated with polyclonal anti-human Fc at 8000 RU, then a fixed concentration of the scFv-human Fc panel (1.5 μg/mL) were captured to reach a binding signal around 150 RU. Finally, a serial dilution of human or cynomolgus WGS isoform of galectin-10-His (serial dilution, 1 over 2 from 5 μg/mL, 6 points of dilution) was injected. Raw data were analyzed via BIA evaluation software with a blank subtraction (4-3). Finally, the kd/KD and Rmax of each scFv-human Fc to galectin-10-His was determined using the Fit Kinetics simultaneous ka/kd/Binding with mass transfer/Local Rmax on BIA evaluation software.

[2] = target: T2, cynomolgus galectin-10-His, YRT isoform; experiment: ELISA, coated antigen 0.2 ug/mL
Protocol: (§2) In a similar setup to that used during the initial screening, the relative binding properties of the 11 new scFv-human Fc clones were analyzed by ELISA. Briefly, a Maxisorp plate was coated overnight with human or cynomolgus WGS or YRT isoforms of galectin-10-His at 0.2 μg/mL and blocked with PBS 1% casein, before being incubated with a serial dilution of the scFv-human Fc fusion molecules (from 100 nM, dilution 1/5, 8 points of dilutions). After several washing steps, detection of the bound scFv-human Fc was carried out with an anti-human Fc-HRP antibody (Jackson ImmunoResearch, Catalog 109-035-008). Absorbance was measured at 450 nm (reference at 620 nm) with Tecan instrument. Finally, the raw data (OD values) were plotted on GraphPad Prism 7.01. The EC50 values of each clone, calculated with a non-linear regression (log(agonist) vs. response Variable slope (four parameters)) are reported in Table 19 below. As a positive control, clone 6F05 from the previous galectin-10 antibody panel was included.

human galectin-10-His [3] = target: T1, human galectin-10-His; experiment: ELISA, coated antigen 0.2 ug/mL
Protocol: as §2

human galectin-10-His [4] = target: T1, human galectin-10-His; experiment: SPR Biacore (summary table)
Protocol: as §1

[5] = target: T2, cynomolgus galectin-10-His, YRT isoform; experiment: binding ELISA (summary table)
Protocol: as §2

human galectin-10-His [6] = target: T1, human galectin-10-His; experiment: binding ELISA (summary table)
Protocol: as §2

[7] = target: T3, cynomolgus galectin-10-His, WGS isoform; experiment: SPR Biacore T3000, scFv-human Fc captured
Protocol: as §1

[8] = target: T3, cynomolgus galectin-10-His, WGS isoform; experiment: ELISA, coated antigen 0.2 ug/mL
Protocol: as §2

[9] = target: T3, cynomolgus galectin-10-His, WGS isoform; experiment: SPR Biacore (summary table)
Protocol: as §1

[10] = target: T3, cynomolgus galectin-10-His, WGS isoform; experiment: binding ELISA (summary table)
Protocol: as §2

Binder	Kd (human galectin-10-His [1])	koff (human galectin-10-His [1])	kon (human galectin-10-His [1])	Bmax [2]	EC50 [2]	Bmax (human galectin-10-His [3])	EC50 (human galectin-10-His [3])	Kd (human galectin-10-His [4])	koff (human galectin-10-His [4])	kon (human galectin-10-His [4])	EC50 [5]	EC50 (human galectin-10-His [6])	Kd [7]	koff [7]	kon [7]	Bmax [8]	Kd [9]	koff [9]	kon [9]	EC50 [10]	other results
11F12 scFv-human Fc (Fc fusion, also called 011F12; not shown: CH2-CH3 constant domains of human IgG1 (pUPEX50 scFv-Fc fusion vector)) scFv: QVQLQESGGGLVQPGGSLRLSCAASGFTFSTNYMNWVRQAPGKGLEWVSGITSGGGRTYYADSVKGRFTISRDNAKNTLYLQMNSLKPEDTALYYCARTDHAWLDAWGQGTLVTVSSGGGGSGGGGSGGGGSHSAVTQPPSVSGTLGKTVTISCAGTSSDVGYGNYVSWYQHLPGTAPKLLIYAVSTRASGVPDRFSGSKSGNTASLTISGLQSEDEGDYYCASYSVRNNVVFGGGTRLTVL	2.3 nM	0.00072 s⁻¹	320000 M⁻¹ s⁻¹	3 OD	0.24 nM	1.8 OD	0.56 nM	2.3 nM	0.00072 s⁻¹	320000 M⁻¹ s⁻¹	0.24 nM	0.56 nM									
11F02 scFv-human Fc (Fc fusion, also called 011F02; not shown: CH2-CH3 constant domains of human IgG1 (pUPEX50 scFv-Fc fusion vector)) scFv: ELQVVESGGGLVQPGGSLRLSCAASGFTFSTNYMNWVRQAPGKGLEWVSGITSHGARTYYADSVKGRFTISRDNSKNTLYLQMNSLKPEDTALYYCARTDHASLDAWGQGTLVTVSSGGGGSGGGGSGGGGSQTVVTQEPSLSVSPGGTVTLTCGLSSGSVTSSNYPGWYQQKPGQAPRTLIYNTNSRYSGVPNRFSGSISGNKAALTITGAQPEDEADYYCALYMGSSSYNTVFGGGTHLTVL	5.4 nM	0.00203 s⁻¹	370000 M⁻¹ s⁻¹	2.5 OD		1.5 OD	0.77 nM	5.4 nM	0.00203 s⁻¹	370000 M⁻¹ s⁻¹		0.77 nM	7.9 nM	0.00185 s⁻¹	240000 M⁻¹ s⁻¹	2.5 OD	7.9 nM	0.00185 s⁻¹	240000 M⁻¹ s⁻¹	10.4 nM	
8H11 scFv-human Fc (Fc fusion, also called 008H11; not shown: CH2-CH3 constant domains of human IgG1 (pUPEX50 scFv-Fc fusion vector)) scFv: ELQLVESGGGLVQPGGSLRLSCAASGFTFSTNYMNWVRQAPGKGLEWVSGITSGGGRTYYADSVKGRFTISRDNAKNTLYLQMNSLKPEDTALYYCARTDHAWLDAWGQGTLVTVSSGGGGSGGGGSGGGGSQAGLTQPPSVSGTLGKTVTISCAGTSSDVGYGNYVSWYQQLPGTAPKLLIYAVSTRASGIPDRFSGSKSGNTASLTISGLLSEDEADYYCASYRSSNNYVFGGGTKLTVL	1.8 nM	0.00082 s⁻¹	453000 M⁻¹ s⁻¹	3.1 OD	0.1 nM	2.3 OD	0.18 nM	1.8 nM	0.00082 s⁻¹	453000 M⁻¹ s⁻¹	0.1 nM	0.18 nM	0.9 nM	0.00161 s⁻¹	1.75e+06 M⁻¹ s⁻¹	3.1 OD	0.9 nM	0.00161 s⁻¹	1.75e+06 M⁻¹ s⁻¹	0.13 nM	EC50 [8]: 0.13 nM
10D02 scFv-human Fc (Fc fusion, also called 010D02; not shown: CH2-CH3 constant domains of human IgG1 (pUPEX50 scFv-Fc fusion vector)) scFv: EVQLVESGGGLVQPGGSLRVSCAASGFTFSSYYMSWVRQAPGKGLEWVSGIVTGGGRTHYTDSVKGRFTITRDNAKNTLYLQMNSLRPEDTALYYCARVNGVVTNYDYWGQGTQVTVSSGGGGSGGGGSGGGGSQAVLTQPPSVSGSPGKTVTISCAGTSSDVGYGNYVSWYQQLPGMAPKLLIYDVNKRASGITDRFSGSKSGNTASLTISGLQSEDEADYFCASYRSPNNVVFGQGTHLTVL	2 nM	0.00066 s⁻¹	340000 M⁻¹ s⁻¹	2 OD	1.4 nM	1.9 OD	0.56 nM	2 nM	0.00066 s⁻¹	340000 M⁻¹ s⁻¹	1.4 nM	0.56 nM	2.7 nM	0.00122 s⁻¹	450000 M⁻¹ s⁻¹	3.1 OD	2.7 nM	0.00122 s⁻¹	450000 M⁻¹ s⁻¹	1.12 nM	EC50 [8]: 1.12 nM

Binders with a lower Kd (human galectin-10-His [1]), results first:

Kd (human galectin-10-His [1])	koff (human galectin-10-His [1])	kon (human galectin-10-His [1])	Bmax [2]	EC50 [2]	Bmax (human galectin-10-His [3])	EC50 (human galectin-10-His [3])	Kd (human galectin-10-His [4])	koff (human galectin-10-His [4])	kon (human galectin-10-His [4])	EC50 [5]	EC50 (human galectin-10-His [6])	Kd [7]	koff [7]	kon [7]	Bmax [8]	Kd [9]	koff [9]	kon [9]	EC50 [10]	Binder	other results
1.6 nM	0.00081 s⁻¹	500000 M⁻¹ s⁻¹	3.2 OD	0.05 nM	2.2 OD	0.09 nM	1.6 nM	0.00081 s⁻¹	500000 M⁻¹ s⁻¹	0.05 nM	0.09 nM	1 nM	0.0008 s⁻¹	770000 M⁻¹ s⁻¹	3.3 OD	1 nM	0.0008 s⁻¹	770000 M⁻¹ s⁻¹	0.05 nM	10B02 scFv-human Fc (Fc fusion, also called 010B02; not shown: CH2-CH3 constant domains of human IgG1 (pUPEX50 scFv-Fc fusion vector)) scFv: QVQLVESGGGLVQPGGSLRVSCAASGFTFSYHYMNWVRQAPGKGLEWVSGISAGGGRTYYADSVKGRFTISRDNAKNTLYLQMNSLNAEDTALYYCARVHGITNDYWGQGTQVTVSSGGGGSGGGGSGGGGSQSALTQPPSVSGSPGKTVTISCAGTSSDVGYGNYVSWYQQLPGMAPKLLIYEVNKRASGITDRFSGSKSGNTAFLTISGLQSEDEADYYCASYRNSNNWVFGGGTHLTVL	EC50 [8]: 0.05 nM
0.8 nM	0.00124 s⁻¹	1.5e+06 M⁻¹ s⁻¹	0 OD		0.6 OD	1.11 nM	0.8 nM	0.00124 s⁻¹	1.5e+06 M⁻¹ s⁻¹		1.11 nM	1.5 nM	0.0766 s⁻¹	5e+07 M⁻¹ s⁻¹	0.6 OD	1.5 nM	0.0766 s⁻¹	5e+07 M⁻¹ s⁻¹	0.82 nM	7B07 scFv-human Fc (Fc fusion, also called 007B07; not shown: CH2-CH3 constant domains of human IgG1 (pUPEX50 scFv-Fc fusion vector)) scFv: QVQLVESGGGLVQPGGSLRLSCAASGFTFRSYDMSWVRQAPGKGPEWVSAIKNGGGITYYADSVKGRFTISRDNAKNTLYLQMNSLKPEDTAVYYCATTHGIGTLGFGSWGQGTQVTVSSGGGGSGGGGSGGGGSSYELTQSASVSVALTQTAKITCDGNNIGSKSAQWYQQKPGQAPALVIYADEYRPEGIPERFSGSNSGNTATLIISGAQAEDEADYYCQVWDGSAAVFGRGTHLTVL	EC50 [8]: 0.82 nM; binding result [2]: no binding (tested: serial dilution from 100 nM)
0.3 nM	0.00025 s⁻¹	910000 M⁻¹ s⁻¹	3 OD	0.04 nM	1.2 OD	0.08 nM	0.3 nM	0.00025 s⁻¹	910000 M⁻¹ s⁻¹	0.04 nM	0.08 nM									10A06 scFv-human Fc (Fc fusion, also called 010A06; not shown: CH2-CH3 constant domains of human IgG1 (pUPEX50 scFv-Fc fusion vector)) scFv: QVQLVESGGGLVQPGGSLRLSCAASGFTFGNYDMSWVRQAPGKGPEWVSDINSGGGSTYYADSVKGRFTISRDNAKNSLLLQMNSLKPEDTAVYYCATGYTGYYYWGQGTQVTVSSGGGGSGGGGSGGGGSQTVVTQEPSLSVSPGGTVTLTCGLSSGSVTSSNYPAWYQQTPGQAPRALIYSINSRHSGVPDRFSGSISGNKAALTITGAQAEDEADYYCTLYMGTGSNNVVFGGGTHLTVL	
